The star is where a group is joined. Dnp = O=[N+]([O-])c1ccc(*)c([N+](=O)[O-])c1
T1: collagenase 1 (UniProt P03956 100-469, limits assumed)
T1 sequence (looked up): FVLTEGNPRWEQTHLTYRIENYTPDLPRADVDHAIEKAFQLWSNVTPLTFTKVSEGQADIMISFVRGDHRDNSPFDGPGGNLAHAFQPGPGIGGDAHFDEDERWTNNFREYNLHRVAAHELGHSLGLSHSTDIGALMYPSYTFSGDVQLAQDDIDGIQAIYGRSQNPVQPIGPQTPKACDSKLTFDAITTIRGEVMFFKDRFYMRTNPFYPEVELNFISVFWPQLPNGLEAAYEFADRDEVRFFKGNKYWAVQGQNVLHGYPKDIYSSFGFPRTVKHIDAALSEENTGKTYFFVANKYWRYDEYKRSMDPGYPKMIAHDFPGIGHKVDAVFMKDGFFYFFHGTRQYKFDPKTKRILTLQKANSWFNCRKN

T2: human Gelatinase-A (human, UniProt P08253 110-660, limits assumed)
T2 sequence (looked up): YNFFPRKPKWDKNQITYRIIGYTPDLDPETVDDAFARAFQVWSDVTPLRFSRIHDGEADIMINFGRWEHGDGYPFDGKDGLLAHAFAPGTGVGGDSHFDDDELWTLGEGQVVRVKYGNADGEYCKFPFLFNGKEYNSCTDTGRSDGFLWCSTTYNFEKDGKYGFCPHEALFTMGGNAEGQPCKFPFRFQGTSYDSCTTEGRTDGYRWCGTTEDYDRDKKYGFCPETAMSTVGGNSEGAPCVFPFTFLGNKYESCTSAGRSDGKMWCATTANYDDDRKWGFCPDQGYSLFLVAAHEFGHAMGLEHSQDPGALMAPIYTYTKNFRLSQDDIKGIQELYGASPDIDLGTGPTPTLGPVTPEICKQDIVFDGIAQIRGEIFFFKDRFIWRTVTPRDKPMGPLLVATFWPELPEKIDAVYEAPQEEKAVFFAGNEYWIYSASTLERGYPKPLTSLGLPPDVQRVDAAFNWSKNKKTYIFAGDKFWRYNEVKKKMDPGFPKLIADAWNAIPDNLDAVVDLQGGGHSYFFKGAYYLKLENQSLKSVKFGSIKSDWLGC


What was measured:
Experiment in all cases: cell-based or functional assay
collagenase 1 = target: T1, collagenase 1
human Gelatinase-A = target: T2, human Gelatinase-A
gelatinase B = gelatinase B (UniProt P14780 107-707, limits assumed)
stromelysin 1 = stromelysin 1 (UniProt P08254 100-477, limits assumed)
Chain of stromelysin 1 (P08254 100-477 limits assumed): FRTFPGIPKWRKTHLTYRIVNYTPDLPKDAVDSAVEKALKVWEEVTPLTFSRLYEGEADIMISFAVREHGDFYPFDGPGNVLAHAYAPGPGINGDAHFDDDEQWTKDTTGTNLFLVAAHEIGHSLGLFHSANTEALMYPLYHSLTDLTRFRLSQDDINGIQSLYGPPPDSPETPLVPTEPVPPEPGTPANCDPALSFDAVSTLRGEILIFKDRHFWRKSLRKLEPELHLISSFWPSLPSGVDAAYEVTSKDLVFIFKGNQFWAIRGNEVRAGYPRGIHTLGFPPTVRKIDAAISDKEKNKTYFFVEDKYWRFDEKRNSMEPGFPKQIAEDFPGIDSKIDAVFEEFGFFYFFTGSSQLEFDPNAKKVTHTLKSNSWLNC

Chain of gelatinase B (P14780 107-707 limits assumed): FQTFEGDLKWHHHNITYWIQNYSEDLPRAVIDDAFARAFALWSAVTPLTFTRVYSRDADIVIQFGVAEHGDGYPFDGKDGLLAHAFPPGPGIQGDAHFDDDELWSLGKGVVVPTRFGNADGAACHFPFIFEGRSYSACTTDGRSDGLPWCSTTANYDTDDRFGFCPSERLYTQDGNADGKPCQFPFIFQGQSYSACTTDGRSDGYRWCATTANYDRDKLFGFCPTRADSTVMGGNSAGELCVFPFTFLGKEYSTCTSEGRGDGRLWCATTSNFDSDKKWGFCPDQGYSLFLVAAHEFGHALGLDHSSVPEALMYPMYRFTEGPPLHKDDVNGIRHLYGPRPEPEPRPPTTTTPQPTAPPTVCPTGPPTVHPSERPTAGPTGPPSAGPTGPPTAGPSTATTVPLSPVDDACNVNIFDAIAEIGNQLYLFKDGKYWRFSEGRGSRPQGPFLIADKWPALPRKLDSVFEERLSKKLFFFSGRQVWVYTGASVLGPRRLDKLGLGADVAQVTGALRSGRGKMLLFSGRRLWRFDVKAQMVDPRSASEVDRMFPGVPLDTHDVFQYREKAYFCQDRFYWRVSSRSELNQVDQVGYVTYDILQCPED

| Selectivity v. Coll-3 (collagenase 1) | Selectivity v. Coll-3 (human Gelatinase-A) | Selectivity v. Coll-3 (gelatinase B) | Selectivity v. Coll-3 (stromelysin 1) | Binder |
| --- | --- | --- | --- | --- |
| 1570 unitless | 7 unitless | 3 unitless | 13200 unitless | Dnp-GPKGMRG-NH2 (SMILES CSCC[C@H](NC(=O)CNC(=O)[C@H](CCCCN)NC(=O)[C@@H]1CCCN1C(=O)CNc1ccc([N+](=O)[O-])cc1[N+](=O)[O-])C(=O)N[C@@H](CCCNC(=N)N)C(=O)NCC(N)=O) [Dnp-GPKGMRG-NH2] |
| 212 unitless | 16 unitless | 6 unitless | 404 unitless | Dnp-GPYGMRA-NH2 (SMILES CSCC[C@H](NC(=O)CNC(=O)[C@H](Cc1ccc(O)cc1)NC(=O)[C@@H]1CCCN1C(=O)CNc1ccc([N+](=O)[O-])cc1[N+](=O)[O-])C(=O)N[C@@H](CCCNC(=N)N)C(=O)N[C@@H](C)C(N)=O) [Dnp-GPYGMRA-NH2] |
| 688 unitless | 21 unitless | 5 unitless | 191 unitless | Dnp-GPLSFQG-NH2 (SMILES CC(C)C[C@H](NC(=O)[C@@H]1CCCN1C(=O)CNc1ccc([N+](=O)[O-])cc1[N+](=O)[O-])C(=O)N[C@@H](CO)C(=O)N[C@@H](Cc1ccccc1)C(=O)N[C@@H](CCC(N)=O)C(=O)NCC(N)=O) [Dnp-GPLSFQG-NH2] |
| 39 unitless | 31 unitless | 4 unitless | 1000 unitless | Dnp-VTPYNMRG-NH2 (SMILES CSCC[C@H](NC(=O)[C@H](CC(N)=O)NC(=O)[C@H](Cc1ccc(O)cc1)NC(=O)[C@@H]1CCCN1C(=O)[C@@H](NC(=O)[C@@H](Nc1ccc([N+](=O)[O-])cc1[N+](=O)[O-])C(C)C)[C@@H](C)O)C(=O)N[C@@H](CCCNC(=N)N)C(=O)NCC(N)=O) [Dnp-VTPYNMRG-NH2] |
| 3680 unitless | 32 unitless | 7 unitless | 700 unitless | Dnp-GPLQFRG-NH2 (SMILES CC(C)C[C@H](NC(=O)[C@@H]1CCCN1C(=O)CNc1ccc([N+](=O)[O-])cc1[N+](=O)[O-])C(=O)N[C@@H](CCC(N)=O)C(=O)N[C@@H](Cc1ccccc1)C(=O)N[C@@H](CCCNC(=N)N)C(=O)NCC(N)=O) [Dnp-GPLQFRG-NH2] |
| 45 unitless | 65 unitless | 6 unitless | 590 unitless | Dnp-GPLSIQD-NH2 (SMILES CC[C@H](C)[C@H](NC(=O)[C@H](CO)NC(=O)[C@H](CC(C)C)NC(=O)[C@@H]1CCCN1C(=O)CNc1ccc([N+](=O)[O-])cc1[N+](=O)[O-])C(=O)N[C@@H](CCC(N)=O)C(=O)N[C@@H](CC(=O)O)C(N)=O) [Dnp-GPLSIQD-NH2] |
| 3350 unitless | 17 unitless | 8 unitless | 2300 unitless | Dnp-GPHPFRG-NH2 (SMILES N=C(N)NCCC[C@H](NC(=O)[C@H](Cc1ccccc1)NC(=O)[C@@H]1CCCN1C(=O)[C@H](Cc1c[nH]cn1)NC(=O)[C@@H]1CCCN1C(=O)CNc1ccc([N+](=O)[O-])cc1[N+](=O)[O-])C(=O)NCC(N)=O) [Dnp-GPHPFRG-NH2] |
| 548 unitless | 6 unitless | 2 unitless | 37000 unitless | Dnp-GPKGITS-NH2 (SMILES CC[C@H](C)[C@H](NC(=O)CNC(=O)[C@H](CCCCN)NC(=O)[C@@H]1CCCN1C(=O)CNc1ccc([N+](=O)[O-])cc1[N+](=O)[O-])C(=O)N[C@H](C(=O)N[C@@H](CO)C(N)=O)[C@@H](C)O) [Dnp-GPKGITS-NH2] |
